According to US20210002376A1 (UNIVERSIT T STUTTGART, published 2021):

T1: TNFR2-Fc (Enbrel) fusion protein (UniProt P20333 23-257)
T1 construct: extracellular domain; Commercial product (Enbrel) used as coated antigen
T1 sequence (looked up): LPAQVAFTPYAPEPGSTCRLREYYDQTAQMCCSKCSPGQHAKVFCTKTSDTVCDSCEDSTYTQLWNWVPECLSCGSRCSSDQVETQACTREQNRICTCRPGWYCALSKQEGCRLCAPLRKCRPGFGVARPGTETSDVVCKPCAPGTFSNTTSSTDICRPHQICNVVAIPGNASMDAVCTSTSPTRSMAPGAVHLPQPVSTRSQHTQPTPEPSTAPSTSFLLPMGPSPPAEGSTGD

T2: TNFR2 (on Kym-1 cells) (UniProt P20333 23-461, limits assumed)
T2 sequence (looked up): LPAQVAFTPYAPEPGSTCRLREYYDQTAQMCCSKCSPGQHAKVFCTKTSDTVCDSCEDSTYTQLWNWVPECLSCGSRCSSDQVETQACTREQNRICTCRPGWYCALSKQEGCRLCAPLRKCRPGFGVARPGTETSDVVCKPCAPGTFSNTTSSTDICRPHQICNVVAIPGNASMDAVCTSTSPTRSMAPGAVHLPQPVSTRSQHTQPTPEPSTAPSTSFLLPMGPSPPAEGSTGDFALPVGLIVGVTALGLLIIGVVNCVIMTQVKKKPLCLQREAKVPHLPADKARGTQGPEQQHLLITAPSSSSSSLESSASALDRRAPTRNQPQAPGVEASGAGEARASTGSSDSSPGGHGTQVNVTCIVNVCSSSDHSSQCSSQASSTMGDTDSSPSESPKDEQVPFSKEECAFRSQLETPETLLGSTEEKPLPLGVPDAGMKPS


Key:
[1] = molecular target: T1, TNFR2-Fc (Enbrel) fusion protein; assay: ELISA, coated TNFR2-Fc (Enbrel), anti-human Fab-HRP
Procedure: Bound protein was detected with an HRP-conjugated anti-human Fab antibody. […] Optical density was measured at 450 nm.

TNFR2 (on Kym-1 cells) = molecular target: T2, TNFR2 (on Kym-1 cells); assay: cell-based or functional assay
CD3 (on Jurkat cells) = molecular target: T3, CD3 (on Jurkat cells) (UniProt P07766 23-207); assay: flow cytometry on CD3-expressing Jurkat cells
T3 construct: whole, on cells; CD3 is a complex of several chains; only CD3 is printed; also called CD3-positive Jurkat cells; CD3-expressing cells (Jurkat)
T3 sequence (P07766 23-207): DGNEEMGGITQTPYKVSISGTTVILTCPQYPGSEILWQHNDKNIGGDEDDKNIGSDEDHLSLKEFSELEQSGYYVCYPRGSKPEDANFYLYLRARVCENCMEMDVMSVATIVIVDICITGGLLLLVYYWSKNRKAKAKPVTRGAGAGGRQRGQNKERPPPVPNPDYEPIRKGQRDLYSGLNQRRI
Procedure: (§1) Simultaneous binding of both antigens was tested via flow cytometry using CD3-expressing Jurkat cells. A titration of bispecific Db3-43xhuU3-EHD2-Fab3-43-Fcₖᵢₕ was incubated with the cells for one hour at RT. After washing cells twice with PBA, the second antigen, HER3-His, was added to the cells (300 nM) and incubated for one additional hour at RT. Cells were washed twice using PBA. Bound HER3-His was detected using a PE-labeled anti-His antibody. After washing, median fluorescence intensity (MFI) was measured with a Milltenyi MACSQuant® Analyzer 10. Relative MFI (to unstained cells) were calculated by MACSQuant® software and Excel.
(§2) Binding studies of Db3-43xhuU3-EHD2-scFv3-43-Fcₖᵢₕ to HER3-expressing (SKBR3; Table 5) and CD3-expressing cells (Jurkat) were analyzed via flow cytometry. Adherent SKBR3 cells were washed with PBS and shortly trypsinized at 37° C. Trypsin was quenched with FCS containing medium and removed by centrifugation (500×g, 5 minutes). Jurkat cells, which are suspension cells, were directly used without trypsin treatment. […] Bound antibodies were detected using PE-labeled anti-human Fc secondary antibody, which was incubated for another hour at 4° C. After washing, median fluorescence intensity (MFI) was measured with a Milltenyi MACSQuant® Analyzer 10. Relative MFI (to unstained cells) were calculated by MACSQuant® software and Excel. […]

HER3-His [2] = molecular target: T4, HER3-His (UniProt P21860 21-643); assay: simultaneous binding, flow cytometry: molecule titrated on CD3-positive Jurkat cells, HER3-His 300 nM added, PE anti-His
T4 construct: range 21-643; also called His-tagged HER3; second antigen
Procedure: as §1, §2

HER3 (on tumor cells) = molecular target: T5, HER3 (on tumor cells) (UniProt P21860 20-1342, limits assumed); assay: flow cytometry on HER3-expressing SKBR-3 cells
T5 construct: whole, on cells; also called HER3 on MCF-7, SKBR-3 (SKBR3) and FaDu cells

EGFR-His = molecular target: T6, EGFR-His (UniProt P00533 25-645); assay: ELISA, coated His-tagged EGFR ECD, anti-human Fc-HRP
T6 construct: range 25-645; also called His-tagged EGFR
Procedure: (§3) The His-tagged EGFR or HER3 proteins were used as antigens and coated onto polystyrene microtiter plates at a concentration of 2 μg/ml diluted in PBS. Remaining binding sites were blocked with PBS, 2% skimmed milk (MPBS). […] After washing, bound antibodies were detected with an HRP-conjugated anti-human Fc antibody and TMB, H₂O₂ as substrate. […] Simultaneous binding to both antigens, EGFR and HER3, was confirmed by a second binding ELISA analysis. As first antigen, EGFR-Fc fusion protein was coated onto polystyrene microtiter plates at 2 μg/ml in PBS. Remaining binding sites were blocked with PBS, 2% skimmed milk (MPBS). […] After washing, the second antigen, HER3-His (300 nM diluted in MPBS), was added to the plates. After washing, bound HER3-His (second antigen) was detected with an HRP-conjugated anti-His antibody and TMB, H₂O₂ as substrate.

HER3-His [3] = molecular target: T4, HER3-His; assay: ELISA, coated His-tagged HER3 ECD, anti-human Fc-HRP
Procedure: as §3

HER3-His [4] = molecular target: T4, HER3-His; assay: simultaneous binding ELISA: coated EGFR-Fc, Db titrated, HER3-His 300 nM added, anti-His-HRP
Procedure: as §3

| Binder | EC50 (CD3 (on Jurkat cells)) [nM] | EC50 (HER3-His [2]) [nM] | EC50 (HER3 (on tumor cells)) [nM] | EC50 (EGFR-His) [nM] | EC50 (HER3-His [3]) [nM] | EC50 (HER3-His [4]) [nM] | also measured |
| --- | --- | --- | --- | --- | --- | --- | --- |
| anti-TNFR2 IgG (antibody, V domains shown) VH: QVQLQQSGAEVKKPGSAVKVSCKASGGTFSSYAISWVRQAPGQGLEWMGRIIPILGIANYAQKFQGRVTITADKSTSTAYMELSSLRSEDTAVYYCARDGLGDAFDIWGQGTMVTVSS VL: QSALTQPRSVSGSPGQSITISCTGTSSDVGGYNYVSWYQQHPGKAPKLMIYDVSNRPSGVSNRFSGSKSGNTASLTISGLQAEDEADYYCSSYTSSSTLVVFGGGTKLTVL |  |  |  |  |  |  | EC50 [1]: 0.7 nM; EC50 of cell death induction, Kym-1 cells, MTT assay after 24 hours (TNFR2 (on Kym-1 cells)): ~30 nM |
| Db3-43xhuU3-EHD2-Fab3-43-Fckih (bispecific antibody, Four different polypeptides; also called bispecific, trivalent Diabody-Fab fusion protein targeting HER3 (3-43) and CD3 (huU3)) light 1: not shown heavy 1: QVQLVQSGAEVKKPGSSVKVSCKASGGTFSGYTMNWVRQAPGQGLEWMGLINPYKGVSTYNGKFKDRVTITADKSTSTAYMELSSLRSEDTAVYYCARSGYYGDSDWYFDVWGQGTLVTVSSGGGGSQAGLTQPPAVSVAPGQTASITCGRDNIGSRSVHWYQQKPGQAPVLVVYDDSDRPAGIPERFSGSNYENTATLTISRVEAGDEADYYCQVWGITSDHVVFGGGTKLTVLASDFTPPTVKILQSSCDGGGHFPPTIQLLCLVSGYTPGTINITWLEDGQVMDVDLSTASTTQEGELASTQSELTLSQKHWLSDRTYTCQVTYQGHTFEDSTKKCADSNDKTHTCPPCPAPPVAGPSVFLFPPKPKDTLMISRTPEVTCVVVDVSHEDPEVKFNWYVDGVEVHNAKTKPREEQYNSTYRVVSVLTVLHQDWLNGKEYKCKVSNKGLPSSIEKTISKAKGQPREPQVCTLPPSRDELTKNQVSLSCAVKGFYPSDIAVEWESNGQPENNYKTTPPVLDSDGSFFLVSKLTVDKSRWQQGNVFSCSVMHEALHNHYTQKSLSLSPGK heavy 2: QVQLQQSGPGLVKPSQTLSLTCAISGDSVSSNRAAWNWIRQSPSRGLEWLGRTYYRSKWYNDYAQSLKSRITINPDTPKNQFSLQLNSVTPEDTAVYYCARDGQLGLDALDIWGQGTMVTVSSASTKGPSVFPLAPSSKSTSGGTAALGCLVKDYFPEPVTVSWNSGALTSGVHTFPAVLQSSGLYSLSSVVTVPSSSLGTQTYICNVNHKPSNTKVDKKVEPKSCGTDKTHTCPPCPAPPVAGPSVFLFPPKPKDTLMISRTPEVTCVVVDVSHEDPEVKFNWYVDGVEVHNAKTKPREEQYNSTYRVVSVLTVLHQDWLNGKEYKCKVSNKGLPSSIEKTISKAKGQPREPQVYTLPPCRDELTKNQVSLWCLVKGFYPSDIAVEWESNGQPENNYKTTPPVLDSDGSFFLYSKLTVDKSRWQQGNVFSCSVMHEALHNHYTQKSLSLSPGK light 2: QAGLTQPPAVSVAPGQTASITCGRDNIGSRSVHWYQQKPGQAPVLVVYDDSDRPAGIPERFSGSNYENTATLTISRVEAGDEADYYCQVWGITSDHVVFGGGTKLTVLGQPKAAPSVTLFPPSSEELQANKATLVCLISDFYPGAVTVAWKADSSPVKAGVETTTPSKQSNNKYAASSYLSLTPEQWKSHRSYSCQVTHEGSTVEKTVAPTECS | 9.5 | 13.8 | 0.03 |  |  |  |  |
| Db3-43xhuU3-EHD2-scFv3-43-Fckih (bispecific antibody, Three different polypeptides; also called bispecific, trivalent Diabody-scFv fusion protein targeting HER3 (3-43) and CD3 (huU3)) light: not shown heavy: QVQLVQSGAEVKKPGSSVKVSCKASGGTFSGYTMNWVRQAPGQGLEWMGLINPYKGVSTYNGKFKDRVTITADKSTSTAYMELSSLRSEDTAVYYCARSGYYGDSDWYFDVWGQGTLVTVSSGGGGSQAGLTQPPAVSVAPGQTASITCGRDNIGSRSVHWYQQKPGQAPVLVVYDDSDRPAGIPERFSGSNYENTATLTISRVEAGDEADYYCQVWGITSDHVVFGGGTKLTVLASDFTPPTVKILQSSCDGGGHFPPTIQLLCLVSGYTPGTINITWLEDGQVMDVDLSTASTTQEGELASTQSELTLSQKHWLSDRTYTCQVTYQGHTFEDSTKKCADSNDKTHTCPPCPAPPVAGPSVFLFPPKPKDTLMISRTPEVTCVVVDVSHEDPEVKFNWYVDGVEVHNAKTKPREEQYNSTYRVVSVLTVLHQDWLNGKEYKCKVSNKGLPSSIEKTISKAKGQPREPQVCTLPPSRDELTKNQVSLSCAVKGFYPSDIAVEWESNGQPENNYKTTPPVLDSDGSFFLVSKLTVDKSRWQQGNVFSCSVMHEALHNHYTQKSLSLSPGK QVQLQQSGPGLVKPSQTLSLTCAISGDSVSSNRAAWNWIRQSPSRGLEWLGRTYYRSKWYNDYAQSLKSRITINPDTPKNQFSLQLNSVTPEDTAVYYCARDGQLGLDALDIWGQGTMVTVSSGGGGSGGGGSGGGGSQAGLTQPPAVSVAPGQTASITCGRDNIGSRSVHWYQQKPGQAPVLVVYDDSDRPAGIPERFSGSNYENTATLTISRVEAGDEADYYCQVWGITSDHVVFGGGTKLTVLAAADKTHTCPPCPAPPVAGPSVFLFPPKPKDTLMISRTPEVTCVVVDVSHEDPEVKFNWYVDGVEVHNAKTKPREEQYNSTYRVVSVLTVLHQDWLNGKEYKCKVSNKGLPSSIEKTISKAKGQPREPQVYTLPPCRDELTKNQVSLWCLVKGFYPSDIAVEWESNGQPENNYKTTPPVLDSDGSFFLYSKLTVDKSRWQQGNVFSCSVMHEALHNHYTQKSLSLSPGK | 8.1 | 9 | 0.037 |  |  |  |  |
| hu225-IgG (antibody, V domains shown) VH: EVQLVESGGGLVQPGGSLRLSCAASGFSLTNYGVHWVRQAPGKGLEWLGVIWSGGNTDYNTPFTSRFTISRDNSKNTLYLQMNSLRAEDTAVYYCARALTYYDYEFAYWGQGTTVTVSS VL: DIQLTQSPSFLSASVGDRVTITCRASQSIGTNIHWYQQKPGKAPKLLIKYASESISGVPSRFSGSGSGTEFTLTISSLQPEDFATYYCQQNNNWPTTFGAGTKLEIK |  |  |  | 0.23 |  |  |  |
| Db3-43xhu225-EHD2-Fc (bispecific antibody, homodimeric Fc part; also called bispecific, tetravalent diabody fusion protein using EHD2) heavy: EVQLVESGGGLVQPGGSLRLSCAASGFSLTNYGVHWVRQAPGKGLEWLGVIWSGGNTDYNTPFTSRFTISRDNSKNTLYLQMNSLRAEDTAVYYCARALTYYDYEFAYWGQGTTVTVSSGGGGSQAGLTQPPAVSVAPGQTASITCGRDNIGSRSVHWYQQKPGQAPVLVVYDDSDRPAGIPERFSGSNYENTATLTISRVEAGDEADYYCQVWGITSDHVVFGGGTKLTVLASDFTPPTVKILQSSCDGGGHFPPTIQLLCLVSGYTPGTINITWLEDGQVMDVDLSTASTTQEGELASTQSELTLSQKHWLSDRTYTCQVTYQGHTFEDSTKKCADSNDKTHTCPPCPAPPVAGPSVFLFPPKPKDTLMISRTPEVTCVVVDVSHEDPEVKFNWYVDGVEVHNAKTKPREEQYNSTYRVVSVLTVLHQDWLNGKEYKCKVSNKGLPSSIEKTISKAKGQPREPQVYTLPPSRDELTKNQVSLTCLVKGFYPSDIAVEWESNGQPENNYKTTPPVLDSDGSFFLYSKLTVDKSRWQQGNVFSCSVMHEALHNHYTQKSLSLSPGK light: QVQLQQSGPGLVKPSQTLSLTCAISGDSVSSNRAAWNWIRQSPSRGLEWLGRTYYRSKWYNDYAQSLKSRITINPDTPKNQFSLQLNSVTPEDTAVYYCARDGQLGLDALDIWGQGTMVTVSSGGGGSDIQLTQSPSFLSASVGDRVTITCRASQSIGTNIHWYQQKPGKAPKLLIKYASESISGVPSRFSGSGSGTEFTLTISSLQPEDFATYYCQQNNNWPTTFGAGTKLEIKRTDFTPPTVKILQSSCDGGGHFPPTIQLLCLVSGYTPGTINITWLEDGQVMDVDLSTASTTQEGELASTQSELTLSQKHWLSDRTYTCQVTYQGHTFEDSTKKCADSN |  |  |  | 0.28 | 0.35 | 1.4 |  |
| Db3-43xhu225-het1EHD2-Fc (bispecific antibody, also called Db3-43xhu225-hetEHD2-Fc) heavy: EVQLVESGGGLVQPGGSLRLSCAASGFSLTNYGVHWVRQAPGKGLEWLGVIWSGGNTDYNTPFTSRFTISRDNSKNTLYLQMNSLRAEDTAVYYCARALTYYDYEFAYWGQGTTVTVSSGGGGSQAGLTQPPAVSVAPGQTASITCGRDNIGSRSVHWYQQKPGQAPVLVVYDDSDRPAGIPERFSGSNYENTATLTISRVEAGDEADYYCQVWGITSDHVVFGGGTKLTVLASDFTPPTVKILQSSCDGGGHFPPTIQLLCLVSGYTPGTINITWLEDGQVMDVDLSTASTTQEGELASTQSELTLSQKHWLSDRTYTCQVTYQGHTFEDSTKKSADSNDKTHTCPPCPAPPVAGPSVFLFPPKPKDTLMISRTPEVTCVVVDVSHEDPEVKFNWYVDGVEVHNAKTKPREEQYNSTYRVVSVLTVLHQDWLNGKEYKCKVSNKGLPSSIEKTISKAKGQPREPQVYTLPPSRDELTKNQVSLTCLVKGFYPSDIAVEWESNGQPENNYKTTPPVLDSDGSFFLYSKLTVDKSRWQQGNVFSCSVMHEALHNHYTQKSLSLSPGK light: QVQLQQSGPGLVKPSQTLSLTCAISGDSVSSNRAAWNWIRQSPSRGLEWLGRTYYRSKWYNDYAQSLKSRITINPDTPKNQFSLQLNSVTPEDTAVYYCARDGQLGLDALDIWGQGTMVTVSSGGGGSDIQLTQSPSFLSASVGDRVTITCRASQSIGTNIHWYQQKPGKAPKLLIKYASESISGVPSRFSGSGSGTEFTLTISSLQPEDFATYYCQQNNNWPTTFGAGTKLEIKRTDFTPPTVKILQSSSDGGGHFPPTIQLLCLVSGYTPGTIQITWLEDGQVMDVDLSTASTTQEGELASTQSELTLSQKHWLSDRTYTCQVTYQGHTFEDSTKKCADSN |  |  |  | 0.24 | 0.34 | 0.56 |  |
